Entries after “also recorded” stand apart in the source; their conditions may differ. Residues, ends and D or L forms follow the SMILES beside them.
Tests used:
Conditions in all cases: CM5 chip, 10-50 μM peptide
[1] = target: T1, recombinant human Ang1 (Homo sapiens, UniProt Q15389); assay: BIACORE (SPR) binding of peptides to immobilized recombinant Ang1
T1 construct: purchased R&D Systems 923-AN-025/CF
T1 sequence (Q15389 16-498): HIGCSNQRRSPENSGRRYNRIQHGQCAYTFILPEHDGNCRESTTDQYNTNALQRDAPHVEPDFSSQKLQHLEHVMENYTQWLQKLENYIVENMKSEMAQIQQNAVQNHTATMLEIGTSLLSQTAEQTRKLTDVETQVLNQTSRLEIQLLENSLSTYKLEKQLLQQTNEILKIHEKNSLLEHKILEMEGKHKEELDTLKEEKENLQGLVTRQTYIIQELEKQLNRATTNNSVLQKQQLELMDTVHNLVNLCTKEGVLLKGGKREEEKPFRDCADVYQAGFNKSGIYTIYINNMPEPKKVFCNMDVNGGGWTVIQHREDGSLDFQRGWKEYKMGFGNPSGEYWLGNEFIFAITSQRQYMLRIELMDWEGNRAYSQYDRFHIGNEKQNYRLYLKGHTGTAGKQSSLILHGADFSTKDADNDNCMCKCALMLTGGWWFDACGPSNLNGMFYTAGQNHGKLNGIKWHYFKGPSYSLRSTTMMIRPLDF
Source text: (§1) The capability of CGEN-H2 [SEQ ID NO: 1], CGEN-H3 [SEQ ID NO: 2], CGEN-A8 [SEQ ID NO: 3], CGEN-H7 [SEQ ID NO: 4], CGEN-G4 [SEQ ID NO: 5], CGEN-G6 [SEQ ID NO: 6], CGEN-F9 [SEQ ID NO: 7], CGEN-F12 [SEQ ID NO: 8], CGEN-C6-30 [SEQ ID NO: 9], CGEN-All [SEQ ID NO: 10], and CGEN-G2 [SEQ ID NO: 11] to specifically bind to recombinant Ang1, Ang2, and Ang4 was investigated using the BIACORE technology, measuring protein-protein interaction and binding affinity (Wendler et al 2005, Anal Bioanal Chem, 381: 1056-1064). The technology is based on surface plasmon resonance (SPR), an optical phenomenon that enables detection of unlabeled interactants in real time. The SPR-based biosensors can be used in determination of active concentration, screening and characterization in terms of both affinity and kinetics.
(§2) Peptide-protein binding was analyzed using surface plasmon resonance. Analysis of the to interaction between CGEN-H2 [SEQ ID NO: 1], CGEN-H3 [SEQ ID NO: 2], CGEN-A8 [SEQ ID NO: 3], CGEN-H7 [SEQ ID NO: 4], CGEN-G4 [SEQ ID NO: 5], CGEN-G6 [SEQ ID NO: 6], CGEN-F9 [SEQ ID NO: 7], CGEN-F12 [SEQ ID NO: 8], CGEN-C6 [SEQ ID NO: 9], CGEN-A11 [SEQ ID NO: 10], and CGEN-G2 [SEQ ID NO: 11] peptides and recombinant human Ang1 carrier-free (R&D Systems, Cat#923-AN-025/CF, Lot#FHW1507031), human Ang2 carrier-free (R&D Systems, Cat#623-AN-025/CF, Lot#BNO0457121), and human Ang4 carrier-free (R&D Systems, Cat#964-AN-025/CF, Lot#ELM025121) was conducted using the BIAcore biosensor (Pharmacia Biosensor, Uppsala, Sweden). The recombinant Ang1, Ang2, and Ang4 were immobilized directly to a CM5 sensor chip. Solutions containing 10-50 μM of CGEN-H2 [SEQ ID NO: 1], CGEN-H3 [SEQ ID NO: 2], CGEN-A8 [SEQ ID NO: 3], CGEN-H7 [SEQ ID NO: 4], CGEN-G4 [SEQ ID NO: 5], CGEN-G6 [SEQ ID NO: 6], CGEN-F9 [SEQ ID NO: 7], CGEN-F12 [SEQ ID NO: 8], CGEN-C6 [SEQ ID NO: 9], CGEN-A11 [SEQ ID NO: 10], and CGEN-G2 [SEQ ID NO: 11] peptides were injected into the sample chamber of the BIACORE device at a rate of […] and the interaction was monitored using surface plasmon resonance.
(§3) Solutions containing different concentrations of CGEN-G6 [SEQ ID NO: 6], CGEN-F9 [SEQ ID NO: 7], CGEN-F12 [SEQ ID NO: 8], CGEN-A11 [SEQ ID NO: 10], and CGEN-G2 [SEQ ID NO: 11] peptides (as indicated in Table 2) were injected into the sample chamber of the BIACORE device at a rate of […] and the interaction was monitored using surface plasmon resonance. As a background, the solutions were also injected onto an empty flow cell with no immobilized ligand and the in binding levels achieved were subtracted. Data was analyzed using BIAevaluation software. The affinity constant of the interaction between CGEN-G6 [SEQ ID NO: 6], CGEN-F9 [SEQ ID NO: 7], CGEN-F12 [SEQ ID NO: 8], CGEN-C6 [SEQ ID NO: 9], CGEN-A11 [SEQ ID NO: 10], and CGEN-G2 [SEQ ID NO: 11] and Ang1, Ang2, or Ang4 was determined by direct kinetic analysis. The 1:1 Langmuir binding model was used to fit kinetic data.
(§4) Table 2 summarizes results of analysis of CGEN-G6 [SEQ ID NO: 6], CGEN-F9 [SEQ ID NO: 7], CGEN-F12 [SEQ ID NO: 8], CGEN-A11 [SEQ ID NO: 10], and CGEN-G2 [SEQ ID NO: 11] interaction with Ang1, Ang2, or Ang4. Kinetic measurements were done at the indicated concentration range, and they are presented as KD (M). CGEN-F12 [SEQ ID NO: 8] bound to Ang1 and Ang4 with high affinity. The specificity of this binding is not clear.

[2] = target: T2, human Ang2 (Homo sapiens, UniProt O15123); assay: BIACORE (SPR) binding of peptides to immobilized recombinant Ang2
T2 construct: purchased R&D Systems 623-AN-025/CF
T2 sequence (O15123 19-496): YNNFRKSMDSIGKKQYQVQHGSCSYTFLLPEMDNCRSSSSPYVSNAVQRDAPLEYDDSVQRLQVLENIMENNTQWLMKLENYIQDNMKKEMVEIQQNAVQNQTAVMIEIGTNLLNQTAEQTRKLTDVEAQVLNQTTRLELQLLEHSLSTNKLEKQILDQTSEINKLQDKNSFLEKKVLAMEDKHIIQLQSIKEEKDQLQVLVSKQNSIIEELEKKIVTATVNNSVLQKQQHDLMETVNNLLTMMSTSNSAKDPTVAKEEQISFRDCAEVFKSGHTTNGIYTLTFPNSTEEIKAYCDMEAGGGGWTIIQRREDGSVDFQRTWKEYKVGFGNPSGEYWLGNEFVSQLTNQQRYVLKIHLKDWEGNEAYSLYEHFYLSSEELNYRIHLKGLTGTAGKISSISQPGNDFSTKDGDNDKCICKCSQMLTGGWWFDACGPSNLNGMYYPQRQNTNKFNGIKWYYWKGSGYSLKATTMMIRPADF
Source text: as §1, §2, §3, §4

[3] = target: T3, human Ang4 (Homo sapiens, UniProt Q9Y264); assay: BIACORE (SPR) binding of peptides to immobilized recombinant Ang4
T3 construct: purchased R&D Systems 964-AN-025/CF
T3 sequence (Q9Y264 25-503): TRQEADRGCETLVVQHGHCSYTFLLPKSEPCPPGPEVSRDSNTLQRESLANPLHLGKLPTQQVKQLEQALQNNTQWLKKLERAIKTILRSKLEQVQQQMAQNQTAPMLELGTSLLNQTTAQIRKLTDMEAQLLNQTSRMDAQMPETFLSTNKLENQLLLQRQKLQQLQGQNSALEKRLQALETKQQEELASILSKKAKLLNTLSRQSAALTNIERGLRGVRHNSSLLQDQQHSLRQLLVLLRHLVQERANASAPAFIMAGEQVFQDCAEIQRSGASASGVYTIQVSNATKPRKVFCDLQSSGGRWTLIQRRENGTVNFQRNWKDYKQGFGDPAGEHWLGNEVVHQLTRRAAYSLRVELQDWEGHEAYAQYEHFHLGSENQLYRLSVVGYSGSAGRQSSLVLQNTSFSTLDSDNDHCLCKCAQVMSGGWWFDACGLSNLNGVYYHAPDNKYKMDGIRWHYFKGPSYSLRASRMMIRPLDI
Source text: as §1, §2, §3, §4

| Compound | binding to immobilized Ang1 (in words) [1] | binding to immobilized Ang2 (in words) [2] | binding to immobilized Ang4 (in words) [3] |
| --- | --- | --- | --- |
| CC[C@H](C)[C@H](NC(=O)[C@H](CO)NC(=O)[C@H](C)NC(=O)[C@H](CC(C)C)NC(=O)[C@H](CCC(=O)O)NC(=O)[C@H](CCC(=O)O)NC(=O)[C@H](CCC(N)=O)NC(C)=O)C(=O)N[C@@H](CC(C)C)C(=O)N[C@@H](CO)C(=O)N[C@@H](CCCCN)C(=O)N[C@@H](CCCCN)C(=O)N[C@@H](C)C(=O)N[C@@H](CCCCN)C(=O)N[C@@H](CC(C)C)C(=O)N[C@@H](CC(C)C)C(=O)N[C@@H](CC(N)=O)C(=O)N[C@H](C(=O)N[C@@H](CC(C)C)C(=O)N[C@@H](CO)C(=O)N[C@@H](CCCNC(=N)N)C(=O)N[C@@H](CCC(N)=O)C(=O)N[C@@H](CO)C(=O)N[C@@H](C)C(=O)N[C@@H](C)C(=O)N[C@@H](CC(C)C)C(=O)N[C@H](C(=O)N[C@@H](CC(N)=O)C(=O)N[C@H](C(=O)N[C@@H](CCC(=O)O)C(=O)N[C@@H](CCCNC(=N)N)C(=O)NCC(=O)N[C@@H](CC(C)C)C(=O)N[C@@H](CCCNC(=N)N)C(=O)NCC(=O)N[C@H](C(=O)N[C@@H](CCCNC(=N)N)C(N)=O)C(C)C)[C@@H](C)CC)[C@@H](C)O)[C@@H](C)O [CGEN-F9] (Ac-QEELASILSKKAKLLNTLSRQSAALTNIERGLRGVR-NH2) | capable of binding | capable of binding | capable of binding |
| CC(=O)N[C@@H](CCC(N)=O)C(=O)N[C@@H](Cc1c[nH]cn1)C(=O)N[C@@H](CO)C(=O)N[C@@H](CC(C)C)C(=O)N[C@@H](CCCNC(=N)N)C(=O)N[C@@H](CCC(N)=O)C(=O)N[C@@H](CC(C)C)C(=O)N[C@@H](CC(C)C)C(=O)N[C@H](C(=O)N[C@@H](CC(C)C)C(=O)N[C@@H](CC(C)C)C(=O)N[C@@H](CCCNC(=N)N)C(=O)N[C@@H](Cc1c[nH]cn1)C(=O)N[C@@H](CC(C)C)C(=O)N[C@H](C(=O)N[C@@H](CCC(N)=O)C(=O)N[C@@H](CCC(=O)O)C(=O)N[C@@H](CCCNC(=N)N)C(=O)N[C@@H](C)C(=O)N[C@@H](CC(N)=O)C(=O)N[C@@H](C)C(=O)N[C@@H](CO)C(=O)N[C@@H](C)C(N)=O)C(C)C)C(C)C [CGEN-F12] (Ac-QHSLRQLLVLLRHLVQERANASA-NH2) | capable of binding; also recorded: high affinity | capable of binding | capable of binding; also recorded: high affinity |
| LKEEKENLQGLVTRQTYIIQELEKQLNRAT (Ac-LKEEKENLQGLVTRQTYIIQELEKQLNRAT-NH2) [CGEN-H2, amino acid residues 212-241 of angiopoietin 1] | none or low binding | none or low binding | none or low binding |
| LMDTVHNLVNL (Ac-LMDTVHNLVNL-NH2) [CGEN-A8, amino acid residues 254-264 of angiopoietin 1] | none or low binding | none or low binding | none or low binding |
| NEILKIHEKNSLLEHKILEMEGKHK (Ac-NEILKIHEKNSLLEHKILEMEGKHK-NH2) [CGEN-H7, amino acid residues 182-206 of angiopoietin 1] | none or low binding | none or low binding | none or low binding |
| QLQVLVSKQNSIIEEL (Ac-QLQVLVSKQNSIIEEL-NH2) [CGEN-G4, amino acid residues 215-230 of angiopoietin 2] | none or low binding | none or low binding | none or low binding |
